Measured values taken from article PMC11741006 (RSC Chemical Biology, 2025).
Starred links: 1 amine or outer side, 2 acyl side, 3 side chain; linkers in the order of their positions; H or OH if unused. Positions of bridges follow the written chain, without caps; N, C: chain ends. Non-standard residues stand in square brackets, D forms with d. *: point of attachment. FITC = O=C1OC2(c3ccc(O)cc3Oc3cc(O)ccc32)c2ccc(NC(=S)*)cc21; S7 = C[C@@](CCCCCC=[*:3])(N[*:1])C(=O)[*:2]; R8 = C=CCCCCCC[C@@](C)(N)C(=O)O; Cba = N[C@@H](CC1CCC1)C(=O)O; S5 = C=CCCC[C@](C)(N)C(=O)O; Ahx = NCCCCCC(=O)O

T1: MDMX (1–134) (UniProt O15151 1-134)
T1 construct: MDMX, residues 1-134; the methods may stand in the ESI; also called Mouse double minute X homolog
T1 sequence (looked up): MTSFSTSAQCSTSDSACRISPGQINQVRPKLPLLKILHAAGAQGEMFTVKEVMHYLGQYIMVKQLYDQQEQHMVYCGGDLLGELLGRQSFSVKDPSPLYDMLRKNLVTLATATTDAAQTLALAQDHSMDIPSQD


Tests used:
MDMX (1–134) = molecular target: T1, MDMX (1–134); assay: fluorescence polarisation; direct binding; 10 nM FITC-labelled peptide incubated with varying concentrations of protein (10 μM to 9 pM), FP read after 3 h; n = 3; conditions: both partners purified
MDM2 (1–138) = molecular target: T2, MDM2 (1–138) (UniProt Q00987 1-138); assay: as above; conditions: both partners purified
T2 construct: MDM2, residues 1-138; the methods may stand in the ESI; also called Mouse double minute 2 homolog
T2 sequence (Q00987 1-138): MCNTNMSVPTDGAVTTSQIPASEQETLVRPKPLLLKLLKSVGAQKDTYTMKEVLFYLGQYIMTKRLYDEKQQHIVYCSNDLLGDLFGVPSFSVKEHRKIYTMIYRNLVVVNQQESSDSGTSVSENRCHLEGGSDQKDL

Binder | Kd (MDMX (1–134)) [nM] | Kd (MDM2 (1–138)) [nM]
{FITC-Ahx}-LTA[S7]EYWAQ[Cba][S7]SAA-NH2 (staple 4-11) [5FITC] | 1120 ± 252 | 3680 ± 151
{FITC-Ahx}-LTF[S7]EYWAQ[Cba][S7]SAA-NH2 (bridge 4-11; not fully specified (bridges)) [4FITC] | 203 ± 54 | 1.39 ± 0.08

Further binders by falling Kd (MDMX (1–134)), results first:

Kd (MDMX (1–134)) [nM] | Kd (MDM2 (1–138)) [nM] | Binder
8.42 ± 0.09 | – | {FITC-Ahx}-LTF[R8]EYWAQ[Cba][S5]SAA-NH2 (staple 4-11; also: cis alkene isomer) [cis-2FITC (ATSP-7041)]
7.86 ± 0.15 | – | {FITC-Ahx}-LTF[R8]EYWAQ[Cba][S5]SAA-NH2 (staple 4-11; also: trans alkene isomer) [trans-3FITC (ATSP-7041)]
